Reference: paper PMC5829230, “G-protein βγ subunits determine grain size through interaction with MADS-domain transcription factors in rice”

Target: GST-OsMADS1 (Oryza sativa, UniProt Q10PZ9 1-257)
Experiment: EMSA; 10x and 50x unlabeled probe as competitor; LightShift Chemiluminescent EMSA Kit (Thermo 20148); buffer, salt, pH and temperature not stated
Conditions: protein: recombinant; tags: N-terminal GST (pGEX-4T-1); chain copies: 2; label: biotin; blunt

Chain of GST-OsMADS1 (Q10PZ9 whole entry): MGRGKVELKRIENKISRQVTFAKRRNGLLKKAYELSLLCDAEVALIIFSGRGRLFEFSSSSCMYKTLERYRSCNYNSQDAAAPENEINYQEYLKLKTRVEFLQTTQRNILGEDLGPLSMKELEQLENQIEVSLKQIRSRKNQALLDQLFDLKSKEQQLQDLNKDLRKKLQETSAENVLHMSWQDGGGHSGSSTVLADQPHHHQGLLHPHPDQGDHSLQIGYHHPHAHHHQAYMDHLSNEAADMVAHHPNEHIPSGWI

B1: MADS55-EMSA-probe (dsDNA)
DNA 1: AGGCAGTATCTATCTATTTATTGCGTATAAACTAAAT
DNA 2: ATTTAGTTTATACGCAATAAATAGATAGATACTGCCT
binding result: binds
